In the Human Domainome abundance scans (Beltran et al. 2025):
± gives the uncertainty stated by the source.

assay: abundance fitness (aPCA) (normalised: wild type 0, dead -1); higher = more abundant; growth selection in yeast, the domain comes from the species named; conditions: Homo sapiens

| Substance | abundance fitness |
| --- | --- |
| Transcriptional activator Myb D152E, P10242 | 0.105 ± 0.077 |
| Transcriptional activator Myb E196Y, P10242 | -0.306 ± 0.17 |
| Transcriptional activator Myb W147T, P10242 | -0.542 ± 0.044 |
| Transcriptional activator Myb L199R, P10242 | -0.045 ± 0.057 |
| Transcriptional activator Myb K192Y, P10242 | -0.535 ± 0.17 |
| Transcriptional activator Myb Y156G, P10242 | -0.237 ± 0.034 |
| Transcriptional activator Myb K143F, P10242 | -0.235 ± 0.18 |
| Transcriptional activator Myb V193P, P10242 | -0.198 ± 0.14 |
| Transcriptional activator Myb K192L, P10242 | 0.004 ± 0.095 |
| Transcriptional activator Myb K182T, P10242 | -0.696 ± 0.14 |
| Transcriptional activator Myb A180C, P10242 | -0.021 ± 0.12 |
| Transcriptional activator Myb D152G, P10242 | -0.452 ± 0.053 |
| Transcriptional activator Myb L172H, P10242 | -0.173 ± 0.14 |
| Transcriptional activator Myb P174V, P10242 | -0.127 ± 0.073 |
| Transcriptional activator Myb I155P, P10242 | -0.945 ± 0.14 |
| Transcriptional activator Myb Q195D, P10242 | -0.19 ± 0.13 |
| Transcriptional activator Myb G163K, P10242 | -0.405 ± 0.11 |
| Transcriptional activator Myb N179F, P10242 | -0.027 ± 0.12 |
| Transcriptional activator Myb V193W, P10242 | -0.075 ± 0.068 |
| Transcriptional activator Myb A180P, P10242 | -0.76 ± 0.12 |
| Transcriptional activator Myb E194W, P10242 | -0.152 ± 0.13 |
| Transcriptional activator Myb E149G, P10242 | -0.143 ± 0.16 |

| Substance | abundance fitness |
| --- | --- |
| Transcriptional activator Myb W166D, P10242 | -0.687 ± 0.15 |
| Transcriptional activator Myb V193S, P10242 | -0.11 ± 0.066 |
| Transcriptional activator Myb A167P, P10242 | 0.037 ± 0.12 |
| Transcriptional activator Myb S203N, P10242 | -0.108 ± 0.1 |
| Transcriptional activator Myb Y198T, P10242 | -0.071 ± 0.1 |
| Transcriptional activator Myb Q200E, P10242 | -0.008 ± 0.082 |
| Transcriptional activator Myb K171P, P10242 | -0.354 ± 0.14 |
| Transcriptional activator Myb T145S, P10242 | -0.042 ± 0.077 |
| Transcriptional activator Myb T145A, P10242 | -0.066 ± 0.061 |
| Transcriptional activator Myb I169V, P10242 | -0.343 ± 0.094 |
| Transcriptional activator Myb Y198S, P10242 | 0.025 ± 0.065 |
| Transcriptional activator Myb I181Q, P10242 | -0.756 ± 0.13 |
| Transcriptional activator Myb W147E, P10242 | -0.563 ± 0.058 |
| Transcriptional activator Myb W166I, P10242 | -0.834 ± 0.17 |
| Transcriptional activator Myb V193E, P10242 | -0.138 ± 0.079 |
| Transcriptional activator Myb M189K, P10242 | 0.038 ± 0.14 |
| Transcriptional activator Myb E151D, P10242 | -0.348 ± 0.15 |
| Transcriptional activator Myb R190W, P10242 | -0.075 ± 0.11 |
| Transcriptional activator Myb I181W, P10242 | -1.26 ± 0.2 |
| Transcriptional activator Myb E201N, P10242 | 0.095 ± 0.14 |
| Transcriptional activator Myb R176F, P10242 | -0.733 ± 0.25 |
| Transcriptional activator Myb N179Y, P10242 | -0.075 ± 0.1 |

| Substance | abundance fitness |
| --- | --- |
| Transcriptional activator Myb H184R, P10242 | -0.055 ± 0.062 |
| Transcriptional activator Myb K192A, P10242 | -0.247 ± 0.12 |
| Transcriptional activator Myb Q200H, P10242 | 0.003 ± 0.13 |
| Transcriptional activator Myb M189T, P10242 | -0.181 ± 0.085 |
| Transcriptional activator Myb R191P, P10242 | 0.047 ± 0.11 |
| Transcriptional activator Myb I181H, P10242 | -1.17 ± 0.25 |
| Transcriptional activator Myb K182N, P10242 | -0.177 ± 0.15 |
| Transcriptional activator Myb L172R, P10242 | -0.279 ± 0.056 |
| Transcriptional activator Myb A167L, P10242 | -0.224 ± 0.079 |
| Transcriptional activator Myb Y156P, P10242 | -0.859 ± 0.1 |
| Transcriptional activator Myb Q200Y, P10242 | -0.259 ± 0.12 |
| Transcriptional activator Myb E196Q, P10242 | -0.032 ± 0.12 |
| Transcriptional activator Myb Q200D, P10242 | -0.139 ± 0.11 |
| Transcriptional activator Myb Q200I, P10242 | -0.161 ± 0.11 |
| Transcriptional activator Myb L173R, P10242 | -0.961 ± 0.078 |
| Transcriptional activator Myb Q195C, P10242 | -0.043 ± 0.12 |
| Transcriptional activator Myb R153L, P10242 | -0.098 ± 0.073 |
| Transcriptional activator Myb D152H, P10242 | -0.695 ± 0.22 |
| Transcriptional activator Myb H184E, P10242 | -0.783 ± 0.1 |
| Transcriptional activator Myb T188N, P10242 | -0.204 ± 0.11 |
| Transcriptional activator Myb E150K, P10242 | 0.117 ± 0.11 |
| Transcriptional activator Myb Q200W, P10242 | -0.345 ± 0.094 |

| Substance | abundance fitness |
| --- | --- |
| Transcriptional activator Myb A170Q, P10242 | -0.056 ± 0.094 |
| Transcriptional activator Myb E196T, P10242 | -0.044 ± 0.1 |
| Transcriptional activator Myb I155G, P10242 | -0.894 ± 0.064 |
| Transcriptional activator Myb Y156V, P10242 | -0.056 ± 0.046 |
| Transcriptional activator Myb Y198W, P10242 | -0.133 ± 0.095 |
| Transcriptional activator Myb I155T, P10242 | -0.535 ± 0.083 |
| Transcriptional activator Myb V193H, P10242 | -0.033 ± 0.13 |
| Transcriptional activator Myb T188Q, P10242 | -0.089 ± 0.078 |
| Transcriptional activator Myb R191C, P10242 | 0.172 ± 0.15 |
| Transcriptional activator Myb E194P, P10242 | 0.022 ± 0.21 |
| Transcriptional activator Myb M189Y, P10242 | -0.535 ± 0.15 |
| Transcriptional activator Myb L172C, P10242 | -0.268 ± 0.14 |
| Transcriptional activator Myb W147I, P10242 | -0.406 ± 0.043 |
| Transcriptional activator Myb S202Y, P10242 | -0.218 ± 0.17 |
| Transcriptional activator Myb E196D, P10242 | -0.056 ± 0.11 |
| Transcriptional activator Myb M189L, P10242 | 0.073 ± 0.083 |
| Transcriptional activator Myb M189I, P10242 | -0.313 ± 0.19 |
| Transcriptional activator Myb Q195S, P10242 | -0.054 ± 0.1 |
| Transcriptional activator Myb K144G, P10242 | -0.042 ± 0.059 |
| Transcriptional activator Myb Y156K, P10242 | -0.13 ± 0.062 |
| Transcriptional activator Myb K171M, P10242 | 0 ± 0.08 |
| Transcriptional activator Myb P174C, P10242 | -0.239 ± 0.15 |

| Substance | abundance fitness |
| --- | --- |
| Transcriptional activator Myb N179L, P10242 | 0.029 ± 0.059 |
| Transcriptional activator Myb Q195Y, P10242 | -0.26 ± 0.22 |
| Transcriptional activator Myb E201V, P10242 | -0.183 ± 0.078 |
| Transcriptional activator Myb A167Q, P10242 | 0.015 ± 0.14 |
| Transcriptional activator Myb S187T, P10242 | 0.124 ± 0.1 |
| Transcriptional activator Myb K204Y, P10242 | -0.16 ± 0.25 |
| Transcriptional activator Myb S187C, P10242 | -0.061 ± 0.1 |
| Transcriptional activator Myb Q200S, P10242 | -0.073 ± 0.06 |
| Transcriptional activator Myb E168S, P10242 | -0.325 ± 0.084 |
| Transcriptional activator Myb H184Q, P10242 | -0.598 ± 0.08 |
| Transcriptional activator Myb S203R, P10242 | -0.145 ± 0.074 |
| Transcriptional activator Myb R176N, P10242 | -0.905 ± 0.2 |
| Transcriptional activator Myb W166H, P10242 | -0.455 ± 0.17 |
| Transcriptional activator Myb V193T, P10242 | -0.018 ± 0.11 |
| Transcriptional activator Myb K182F, P10242 | -0.383 ± 0.16 |
| Transcriptional activator Myb E194G, P10242 | -0.135 ± 0.068 |
| Transcriptional activator Myb S187I, P10242 | -0.033 ± 0.14 |
| Transcriptional activator Myb K144V, P10242 | -0.042 ± 0.085 |
| Transcriptional activator Myb R153T, P10242 | -0.125 ± 0.14 |
| Transcriptional activator Myb K182E, P10242 | 0.01 ± 0.062 |
